This note sets out measurements from doi:10.1101/2023.12.19.572481 (bioRxiv, 2023).

This series deals with the molecule itself. Kind of series: high-speed atomic force microscopy.

B1: Recombinant Human Neuronal Pentraxin 1 Protein (NP1) (natural protein, UniProt Q15818 23-432, looked up)
chain: QDFGPTRFICTSVPVDADMCAASVAAGGAEELRSSVLQLRETVLQQKETILSQKETIRELTAKLGRCESQSTLDPGAGEARAGGGRKQPGSGKNTMGDLSRTPAAETLSQLGQTLQSLKTRLENLEQYSRLNSSSQTNSLKDLLQSKIDELERQVLSRVNTLEEGKGGPRNDTEERVKIETALTSLHQRISELEKGQKDNRPGDKFQLTFPLRTNYMYAKVKKSLPEMYAFTVCMWLKSSATPGVGTPFSYAVPGQANELVLIEWGNNPMEILINDKVAKLPFVINDGKWHHICVTWTTRDGVWEAYQDGTQGGSGENLAPYHPIKPQGVLVLGQEQDTLGGGFDATQAFVGELAHFNIWDRKLTPGEVYNLATCSTKALSGNVIAWAESHIEIYGGATKWTFEACRQIN
Turning to B1, the binding result is “binds”.
